The values below come from US20100099619A1.

Square brackets hold non-standard residues; d marks the D form. Ends that are not written are not given here. Ahx = NCCCCCC(=O)O

The target of the first assay is T1, neuropeptide Y1 receptor, P25929.
T1 chain: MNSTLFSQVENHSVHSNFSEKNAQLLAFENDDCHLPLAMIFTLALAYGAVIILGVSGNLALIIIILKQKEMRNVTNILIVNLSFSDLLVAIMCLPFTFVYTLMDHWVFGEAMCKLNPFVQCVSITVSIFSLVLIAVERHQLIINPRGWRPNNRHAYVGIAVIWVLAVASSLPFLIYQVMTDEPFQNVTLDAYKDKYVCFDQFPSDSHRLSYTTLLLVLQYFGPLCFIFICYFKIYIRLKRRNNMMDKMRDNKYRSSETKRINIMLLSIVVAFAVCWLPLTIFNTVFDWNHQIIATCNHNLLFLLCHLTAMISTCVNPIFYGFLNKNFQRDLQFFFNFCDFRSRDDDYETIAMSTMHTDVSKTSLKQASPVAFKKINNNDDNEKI
Put plainly: radioligand competition, [125I]-hPYY, SK-N-MC membranes. In general terms: In a radioligand displacement assay an active substance lowers the binding of a labelled ligand.
On to YPIRPEAPGEDASPEELAQYAADLRRYINMLTRQRY (modifications not checked) [SEQ ID NO 332], for which the Y1RBA was found to be 13 nM.

In turn, YPIKPEAPGEDASPEELAQYAADLKRYINMLTRQRY (modifications not checked) [SEQ ID NO 321] showed a Y1RBA of 12 nM.

On to YPIKPEAPGEDASPEELAQYAAELRRYIQMLTRQRY (modifications not checked) [SEQ ID NO 347], for which the Y1RBA was 35 nM.

The molecule YPIKPEAPGEDASPEELNQYAADLRRYINMLTRQRY (modifications not checked) [SEQ ID NO 316] came in with a Y1RBA of 7.1 nM.

For the molecule IKPEAPGEDASPEELAQYAADLRRYINMLTRPRY (modifications not checked) [SEQ ID NO 310], the Y1RBA was determined as 29 nM.

The target is the same in a further assay. Put plainly: competition vs [125I]-hPYY, SK-N-MC membranes.
YPIK[Ahx]ELNRYYASLRHYLNLVTRQRY (ends and bridges not checked) [PYY(1-4)Aca(16-36)] had a Y1RBA of 4.4 nM.

For EELNRYYASLRHYLNLVTRQRY (modifications not checked) [SEQ ID NO: 177], the Y1RBA worked out at 5.8 nM.

As to YYASLRHYLNLVTRQRY (modifications not checked) [SEQ ID NO: 178], the Y1RBA was 7.7 nM.

Another assay deals with T2, neuropeptide Y5 receptor (Homo sapiens (Human)), Q15761.
T2 chain: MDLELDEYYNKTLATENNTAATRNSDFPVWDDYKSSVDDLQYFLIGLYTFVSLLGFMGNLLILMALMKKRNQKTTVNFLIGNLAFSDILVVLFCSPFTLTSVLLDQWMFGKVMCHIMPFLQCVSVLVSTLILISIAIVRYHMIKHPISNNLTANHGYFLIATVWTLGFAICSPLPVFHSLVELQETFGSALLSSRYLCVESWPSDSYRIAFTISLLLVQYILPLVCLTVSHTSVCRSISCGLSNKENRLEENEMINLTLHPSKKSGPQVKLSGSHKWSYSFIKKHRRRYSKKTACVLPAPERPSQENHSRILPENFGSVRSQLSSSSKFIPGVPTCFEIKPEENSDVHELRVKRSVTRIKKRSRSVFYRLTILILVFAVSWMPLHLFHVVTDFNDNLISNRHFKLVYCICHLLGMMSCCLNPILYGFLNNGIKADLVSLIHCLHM
Put plainly: radioligand competition, [125I]-hPYY, Y5/CHO-K1 membranes.
Turning to APLEPVYPGDNATPEQMNRYYASLRHYLNLAPRQRY (modifications not checked) [SEQ ID NO 289], the Y5RBA came to 0.83 nM.

As to YPIRPEAPGEDASPEELAQYAADLRRYINMLTRQRY (modifications not checked) [SEQ ID NO 332], the Y5RBA was 1 nM.

With YPIKPEAPGEDASPEELAQYAADLKRYINMLTRQRY (modifications not checked) [SEQ ID NO 321], the Y5RBA worked out at 5.6 nM.

YPIKPEAPGEDASPEELAQYAAELRRYIQMLTRQRY (modifications not checked) [SEQ ID NO 347] showed a Y5RBA of 51 nM.

Regarding YPIKPEAPGEDASPEELNQYAADLRRYINMLTRQRY (modifications not checked) [SEQ ID NO 316], the Y5RBA came out at 1.1 nM.

IKPEAPGEDASPEELAQYAADLRRYINMLTRPRY (modifications not checked) [SEQ ID NO 310] came in with a Y5RBA of 5.1 nM.

A further assay concerns the target neuropeptide Y4 receptor. Put plainly: radioligand competition, [125I]-hPP, Y4/CHO-K1 membranes.
For the molecule APLEPVYPGDNATPEQMNRYYASLRHYLNLAPRQRY (modifications not checked) [SEQ ID NO 289], the Y4 RBA came out at 48 nM.

As to YPIRPEAPGEDASPEELAQYAADLRRYINMLTRQRY (modifications not checked) [SEQ ID NO 332], the Y4 RBA stood at 38 nM.

In the case of YPIKPEAPGEDASPEELAQYAADLKRYINMLTRQRY (modifications not checked) [SEQ ID NO 321], the Y4 RBA worked out at 57 nM.

As for YPIKPEAPGEDASPEELAQYAAELRRYIQMLTRQRY (modifications not checked) [SEQ ID NO 347], the Y4 RBA stood at 740 nM.

YPIKPEAPGEDASPEELNQYAADLRRYINMLTRQRY (modifications not checked) [SEQ ID NO 316] returned a Y4 RBA of 52 nM.

ASLRHYLNLVTRQRY (modifications not checked) [SEQ ID NO 203] had a Y4 RBA of 108 nM.

Molecule ASLRHYLNLVTRQRY (modifications not checked) [SEQ ID NO 202] displayed a Y4 RBA of 23 nM.

As to IKPEAPGEDASPEELAQYAADLRRYINMLTRPRY (modifications not checked) [SEQ ID NO 310], the Y4 RBA was 27 nM.

In the next assay the target is T2, neuropeptide Y5 receptor (Homo sapiens …). Put plainly: competition vs [125I]-hPYY, Y5-transfected CHO-K1 membranes.
YPIK[Ahx]ELNRYYASLRHYLNLVTRQRY (ends and bridges not checked) [PYY(1-4)Aca(16-36)] displayed a Y5RBA of 5.8 nM.

Molecule EELNRYYASLRHYLNLVTRQRY (modifications not checked) [SEQ ID NO: 177] gave a Y5RBA of 11 nM.

YYASLRHYLNLVTRQRY (modifications not checked) [SEQ ID NO: 178]: the Y5RBA was found to be 17 nM.

The target in the next assay is neuropeptide Y4 receptor. Put plainly: competition vs [125I]-hPP, Y4-transfected CHO-K1 membranes.
neuropeptide Y4 receptor, sequence (P50391 whole entry): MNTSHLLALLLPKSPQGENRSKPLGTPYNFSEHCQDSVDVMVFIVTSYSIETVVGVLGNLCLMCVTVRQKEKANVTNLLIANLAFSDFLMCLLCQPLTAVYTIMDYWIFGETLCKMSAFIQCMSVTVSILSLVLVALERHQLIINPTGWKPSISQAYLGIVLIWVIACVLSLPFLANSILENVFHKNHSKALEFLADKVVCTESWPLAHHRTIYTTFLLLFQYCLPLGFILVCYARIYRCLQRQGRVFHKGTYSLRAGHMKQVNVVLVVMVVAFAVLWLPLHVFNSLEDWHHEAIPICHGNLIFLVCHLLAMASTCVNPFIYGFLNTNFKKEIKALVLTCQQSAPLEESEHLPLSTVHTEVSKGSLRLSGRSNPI
APLEPVYPGDNATPEQMAQYAADLRRYINMLTRPRY (modifications not checked) [PP (human pancreatic polypeptide)] showed a Y4 RBA of 0.034 nM.

Regarding RHYLNLVTRQRY (modifications not checked) [SEQ ID NO: 179], the Y4 RBA was determined as 33 nM.

YPIK[Ahx]ELNRYYASLRHYLNLVTRQRY (ends and bridges not checked) [PYY(1-4)Aca(16-36)] yielded a Y4 RBA of 65 nM.

Consider EELNRYYASLRHYLNLVTRQRY (modifications not checked) [SEQ ID NO: 177], for which the Y4 RBA is 46 nM.

On to YYASLRHYLNLVTRQRY (modifications not checked) [SEQ ID NO: 178], for which the Y4 RBA was determined as 38 nM.

The next assay deals with T3, neuropeptide Y2 receptor, P49146.
T3 chain: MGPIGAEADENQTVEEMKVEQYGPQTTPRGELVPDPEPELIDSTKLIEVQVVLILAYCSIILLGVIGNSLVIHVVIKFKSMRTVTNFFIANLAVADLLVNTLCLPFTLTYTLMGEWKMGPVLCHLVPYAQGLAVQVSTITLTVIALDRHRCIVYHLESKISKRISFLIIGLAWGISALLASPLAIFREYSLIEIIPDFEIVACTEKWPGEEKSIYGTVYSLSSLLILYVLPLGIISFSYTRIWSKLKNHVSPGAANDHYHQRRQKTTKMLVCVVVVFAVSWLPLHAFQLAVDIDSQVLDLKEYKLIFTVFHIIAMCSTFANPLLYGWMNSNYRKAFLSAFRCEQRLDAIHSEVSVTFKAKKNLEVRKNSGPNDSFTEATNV
Put plainly: radioligand competition, [125I]-hPYY, SK-N-BE membranes.
As to YPIRPEAPGEDASPEELAQYAADLRRYINMLTRQRY (modifications not checked) [SEQ ID NO 332], the Y2RBA is 0.54 nM.

Molecule YPIKPEAPGEDASPEELAQYAADLKRYINMLTRQRY (modifications not checked) [SEQ ID NO 321] showed a Y2RBA of 3.7 nM.

YPIKPEAPGEDASPEELAQYAAELRRYIQMLTRQRY (modifications not checked) [SEQ ID NO 347] registered a Y2RBA of 18 nM.

Molecule YPIKPEAPGEDASPEELNQYAADLRRYINMLTRQRY (modifications not checked) [SEQ ID NO 316] displayed a Y2RBA of 0.63 nM.

For the molecule IKPEAPGEDASPEELAQYAADLRRYINMLTRPRY (modifications not checked) [SEQ ID NO 310], the Y2RBA is 454 nM.

A further assay has the same target. Put plainly: competition vs [125I]-hPYY, SK-N-BE membranes.
The molecule YPIK[Ahx]ELNRYYASLRHYLNLVTRQRY (ends and bridges not checked) [PYY(1-4)Aca(16-36)] yielded a Y2RBA of 0.21 nM.

For EELNRYYASLRHYLNLVTRQRY (modifications not checked) [SEQ ID NO: 177], the Y2RBA amounted to 0.34 nM.

On to YYASLRHYLNLVTRQRY (modifications not checked) [SEQ ID NO: 178], for which the Y2RBA is 0.29 nM.
